{"source": "patent US20140242093A1", "about": "“METHODS AND COMPOSITIONS FOR MODULATING THE INNATE IMMUNE RESPONSE AND/OR MYOGENESIS IN A MAMMALIAN SUBJECT” (FRED HUTCHINSON CANCER RESEARCH CENTER, priority 2011, published 2014)", "system": "control human primary myoblasts", "test": "Expression microarray of primary myoblasts transduced with lentivirus carrying DUX4-fl, DUX4-s or GFP", "protocol": "Primary human myoblasts were collected and cultured as previously described (Snider et al., 2010). Primary myoblasts were maintained at or below 70% confluency for proliferation. For differentiation, cells were allowed to reach 95-100% confluency in growth medium. Once confluency was reached, the cells were changed to differentiation medium (F10 media supplemented with 1% horse serum, 10 μg/mL insulin, and 10 μg/mL transferrin, penicillin/streptomycin) and maintained for 4 days. Human RD cells were grown in DMEM in 10% bovine calf serum (Hyclone) and penicillin/streptomycin. The primary myoblasts were transduced with lentivirus carrying DUX-fl, DUX4- or GFP (MOI=15).\nExpression microarrays were performed on the transduced cells at 24 hours after transduction as follows. […] Samples were analyzed by Illumina Human Whole Genome microarrays. Probe intensities were corrected, normalized, and summarized by the Lumi package of Bioconductor (Du et al., 2008). Differentially expressed genes were identified by the LIMMA package of Bioconductor (Wettenhall and Smyth, 2004). Gene set enrichment analysis (GSEA) was performed using the Bioconductor GOstats package (Falcon and Gentleman, 2007).", "data": [{"molecule": "DUX4-s: short splice form of DUX4 (SEQ ID NO:112), keeps the double-homeobox domains, lacks the C-terminal activation domain (protein, listed as Homo sapiens) MALPTPSDSTLPAEARGRGRRRRLVWTPSQSEALRACFERNPYPGIATRERLAQAIGIPEPRVQIWFQNERSRQLRQHRRESRPWPGRRGPPEGRRKRTAVTGSQTALLLRAFEKDRFPGIAAREELARETGLPESRIQIWFQNRRARHPGQGGRAPAQV", "values": [{"measurement": "fc of MGLL (expression array)", "setting": "Refseq NM_007283.5", "result": "−0.003305"}, {"measurement": "STAT1 expression fc", "setting": "Refseq NM_007315.2, cultured human skeletal muscle", "result": 0.8235}, {"measurement": "fc of LGALS9 (expression array)", "setting": "Refseq NM_009587.2", "result": 1.706}, {"measurement": "FRAT2 expression fc", "setting": "Refseq NM_012083.2", "result": "−0.05118"}, {"measurement": "fc of CDC42EP4 (expression array)", "setting": "Refseq NM_012121.4", "result": 0.06633}, {"measurement": "CHORDC1 expression fc", "setting": "Refseq NM_012124.1", "result": 0.1261}, {"measurement": "CLDN14 expression fc", "setting": "Refseq NM_012130.2", "result": "−0.3006"}, {"measurement": "TFIP11 expression fc", "setting": "Refseq NM_012143.2", "result": 0.1124}, {"measurement": "SIRT1 expression fc", "setting": "Refseq NM_012238.3", "result": 0.2071}, {"measurement": "KCNH4 expression fc", "setting": "Refseq NM_012285.1", "result": "−0.07365"}, {"measurement": "BAMBI expression fc", "setting": "Refseq NM_012342.2", "result": 0.1101}, {"measurement": "fc of TINF2 (expression array)", "setting": "Refseq NM_012461.1", "result": 0.3861}, {"measurement": "CD24 expression fc", "setting": "Refseq NM_013230.2", "result": "−0.3586"}, {"measurement": "ZNF214 expression fc", "setting": "Refseq NM_013249.1", "result": 0.166}, {"measurement": "TBK1 fc", "setting": "Refseq NM_013254.2", "result": 0.3572}, {"measurement": "MYLIP expression fc", "setting": "Refseq NM_013262.3", "result": "−0.2969"}, {"measurement": "TRA2A expression fc", "setting": "Refseq NM_013293.3", "result": "−0.1095"}, {"measurement": "fc of EEF2K (expression array)", "setting": "Refseq NM_013302.3", "result": "−0.5322"}, {"measurement": "SERTAD1 expression fc", "setting": "Refseq NM_013376.3", "result": 0.41}, {"measurement": "fc of SLC25A24 (expression array)", "setting": "Refseq NM_013386.3", "result": 1.103}, {"measurement": "fc of CLIC4 (expression array)", "setting": "Refseq NM_013943.1", "result": 1.228}, {"measurement": "BZW2 expression fc", "setting": "Refseq NM_014038.1", "result": "−0.4003"}, {"measurement": "LRP10 fc", "setting": "Refseq NM_014045.3", "result": 0.4158}, {"measurement": "fc of FAM156A (expression array)", "setting": "Refseq NM_014138.3", "result": "−0.1365"}, {"measurement": "SMARCAL1 fc", "setting": "Refseq NM_014140.2", "result": 0.01669}, {"measurement": "CCDC59 expression fc", "setting": "Refseq NM_014167.2", "result": 0.2509}, {"measurement": "fc of TDRD7 (expression array)", "setting": "Refseq NM_014290.1", "result": 1.072}, {"measurement": "DDX58 expression fc", "setting": "Refseq NM_014314.3, cultured human skeletal muscle", "result": 0.02114}, {"measurement": "PDSS1 expression fc", "setting": "Refseq NM_014317.3", "result": "−0.07459"}, {"measurement": "AMACR expression fc", "setting": "Refseq NM_014324.4", "result": 0.08431}, {"measurement": "PPP1R15A expression fc", "setting": "Refseq NM_014330.2", "result": 0.5668}, {"measurement": "TSPAN13 expression fc", "setting": "Refseq NM_014399.3", "result": "−0.1469"}, {"measurement": "APOBEC3C fc", "setting": "Refseq NM_014508.2", "result": 0.5827}, {"measurement": "EVC expression fc", "setting": "Refseq NM_014556.2, cultured human skeletal muscle", "result": "−0.3857"}, {"measurement": "SCHIP1 expression fc", "setting": "Refseq NM_014575.2, cultured human skeletal muscle", "result": 0.06263}, {"measurement": "SLC40A1 expression fc", "setting": "Refseq NM_014585.3", "result": "−0.4239"}, {"measurement": "CDR2L fc", "setting": "Refseq NM_014603.1", "result": "−0.203"}, {"measurement": "TAX1BP3 fc", "setting": "Refseq NM_014604.2", "result": "−0.341"}, {"measurement": "CTR9 expression fc", "setting": "Refseq NM_014633.3", "result": "−0.0216"}, {"measurement": "SLC25A44 expression fc", "setting": "Refseq NM_014655.1", "result": "−0.07654"}, {"measurement": "MTSS1 fc", "setting": "Refseq NM_014751.4", "result": "−0.4145"}, {"measurement": "LBA1 fc", "setting": "Refseq NM_014831.1", "result": 0.4958}, {"measurement": "KIAA0020 expression fc", "setting": "Refseq NM_014878.4", "result": 0.01783}, {"measurement": "ABLIM3 fc", "setting": "Refseq NM_014945.2", "result": 0.01495}, {"measurement": "WDR47 expression fc", "setting": "Refseq NM_014969.4", "result": 0.1401}, {"measurement": "ARC expression fc", "setting": "Refseq NM_015193.3", "result": "−0.188"}, {"measurement": "fc of DENND5A (expression array)", "setting": "Refseq NM_015213.2", "result": 0.07991}, {"measurement": "fc of FEM1B (expression array)", "setting": "Refseq NM_015322.3", "result": 1.026}, {"measurement": "fc of PANX1 (expression array)", "setting": "Refseq NM_015368.3", "result": 1.233}, {"measurement": "fc of AASDHPPT (expression array)", "setting": "Refseq NM_015423.2", "result": "−1.246"}, {"measurement": "MTHFD1L fc", "setting": "Refseq NM_015440.3", "result": 0.3955}, {"measurement": "C2orf32 fc", "setting": "Refseq NM_015463.1", "result": 0.07813}, {"measurement": "PVRL3 expression fc", "setting": "Refseq NM_015480.1", "result": 0.4473}, {"measurement": "NGDN expression fc", "setting": "Refseq NM_015514.1", "result": 0.4088}, {"measurement": "fc of RRM2B (expression array)", "setting": "Refseq NM_015713.3", "result": 0.6161}, {"measurement": "MBD2 expression fc", "setting": "Refseq NM_015832.3", "result": "−0.07679"}, {"measurement": "fc of MBTPS2 (expression array)", "setting": "Refseq NM_015884.1", "result": 1.035}, {"measurement": "ARS2 expression fc", "setting": "Refseq NM_015908.4", "result": "−0.2002"}, {"measurement": "GSTK1 fc", "setting": "Refseq NM_015917.1", "result": 0.0593}, {"measurement": "NOP58 expression fc", "setting": "Refseq NM_015934.3", "result": 0.2243}, {"measurement": "CRLF3 expression fc", "setting": "Refseq NM_015986.2", "result": "−0.1449"}, {"measurement": "fc of TTC15 (expression array)", "setting": "Refseq NM_016030.5", "result": "−0.1193"}, {"measurement": "ISOC1 expression fc", "setting": "Refseq NM_016048.1", "result": "−0.6187"}, {"measurement": "MED31 expression fc", "setting": "Refseq NM_016060.2", "result": 0.3123}, {"measurement": "fc of TRPV2 (expression array)", "setting": "Refseq NM_016113.3", "result": 0.3116}, {"measurement": "CERCAM fc", "setting": "Refseq NM_016174.3", "result": "−0.1838"}, {"measurement": "DBR1 expression fc", "setting": "Refseq NM_016216.2", "result": 0.2247}, {"measurement": "POLR3K expression fc", "setting": "Refseq NM_016310.2", "result": 0.05873}, {"measurement": "HERC5 expression fc", "setting": "Refseq NM_016323.2, cultured human skeletal muscle", "result": 1.329}]}]}
